# In patent US20130331552A1:
# B1: AT10-004 mutant C (antibody, V domains shown)
# VH: RASQSVSRFLA
# VL: RASQSVSRFLA
# B2: AT10-004 mutant B (antibody, V domains shown)
# VH: RASQSVSRYLA
# VL: RASQSVSRYLA
# Target: recombinant influenza HA3-protein (from H3N2, Wyoming, March 2003, Sino Biological Inc.) (influenza H3N2, Wyoming, March 2003)
# Assay: SPR imaging (IBIS MX96), antibody captured on anti-human-IgG chip, HA3 injected at 1 µg/ml, global 1:1 fit
Binder,Kd,koff,kon
B1,0.06 nM,1e-06 s⁻¹,17000 M⁻¹ s⁻¹
B2,0.05 nM,1e-06 s⁻¹,19000 M⁻¹ s⁻¹
